167 variants from the RNAGym collection of RNA variant scans (doi:10.7554/elife.90254) can be followed below.

The labels stand for the following.
B1: LINE1-mini (parent)
chain: GGCAGAGCUCAACACAGCGUGGCAAAGUGGCUGUGGCUAGACUGCC

The variants in this data set derive from B1. The data set can be described thus: self-cleavage, relative activity (ratio to wild type); higher = more cleavage; in vitro, sequencing; the parent is a self-cleaving ribozyme.
As to C8G C15U, the self-cleavage amounted to 0.1.

Turning to C8G C15G, the self-cleavage stood at 0.05.

As for C8U C18A, the self-cleavage stood at 0.18.

Consider C8U C18G, for which the self-cleavage turned out to be 0.23.

Take C8U C18U: the self-cleavage was 0.14.

On to C8G G19U, for which the self-cleavage was 0.04.

With C8G G19C, the self-cleavage amounted to 0.05.

With C8G G19A, the self-cleavage was 0.15.

In the case of C8G G29U, the self-cleavage turned out to be 0.11.

Take C8G G29C: the self-cleavage was determined as 0.04.

Turning to C8G G29A, the self-cleavage amounted to 0.06.

For U9A A16U, the self-cleavage came to 0.06.

In the case of U9A A16G, the self-cleavage turned out to be 0.11.

Take U9A A16C: the self-cleavage was found to be 0.08.

Take C8U A25C: the self-cleavage came to 0.21.

For the variant C8U A25G, the self-cleavage came out at 0.13.

In the case of C8U A25U, the self-cleavage was found to be 0.18.

Consider U9A G29U, for which the self-cleavage was found to be 0.15.

Take U9A G29A: the self-cleavage was 0.2.

For the variant U9A G29C, the self-cleavage came out at 0.05.

For the variant U9A G33A, the self-cleavage is 0.11.

As to U9A G33C, the self-cleavage is 0.07.

Consider U9A G33U, for which the self-cleavage came out at 0.07.

On to C8U, for which the self-cleavage was determined as 0.29.

On to C8G C23U, for which the self-cleavage was 0.1.

As for C8G C23G, the self-cleavage came out at 0.08.

As to C8G C23A, the self-cleavage turned out to be 0.1.

On to U9A C46U, for which the self-cleavage is 0.17.

As to U9A C46G, the self-cleavage came out at 0.12.

U9A C46A: the self-cleavage came out at 0.17.

With C8G G17C, the self-cleavage was determined as 0.04.

On to C8G G17U, for which the self-cleavage was 0.07.

On to C8G G17A, for which the self-cleavage turned out to be 0.08.

Consider C8U G40A, for which the self-cleavage was 0.41.

Take C8U G40U: the self-cleavage worked out at 0.29.

As to C8U G40C, the self-cleavage came out at 0.13.

For U9A A14C, the self-cleavage came out at 0.04.

As to U9A A14G, the self-cleavage came to 0.17.

For U9A A14U, the self-cleavage was 0.11.

On to C8G G22A, for which the self-cleavage stood at 0.1.

In the case of C8G G22U, the self-cleavage turned out to be 0.09.

As for C8G G22C, the self-cleavage was determined as 0.06.

As to C8U C37U, the self-cleavage was determined as 0.2.

Turning to C8U C37A, the self-cleavage stood at 0.14.

With C8U C37G, the self-cleavage worked out at 0.07.

As for C8U U9A, the self-cleavage is 0.32.

Take C8U U9C: the self-cleavage is 0.06.

C8U U9G: the self-cleavage was 0.09.

In the case of U9A G30A, the self-cleavage stood at 0.18.

With U9A G30C, the self-cleavage is 0.1.

On to U9A G30U, for which the self-cleavage amounted to 0.08.

U9A C45G: the self-cleavage stood at 0.32.

U9A C45A: the self-cleavage stood at 0.31.

In the case of U9A C45U, the self-cleavage came to 0.28.

For C8G A25G, the self-cleavage came out at 0.1.

Consider C8G A25U, for which the self-cleavage is 0.26.

In the case of C8G A25C, the self-cleavage was 0.11.

Consider C8U U34A, for which the self-cleavage amounted to 0.1.

In the case of C8U U34G, the self-cleavage came to 0.22.

Regarding C8U U34C, the self-cleavage turned out to be 0.18.

Take C8U A24U: the self-cleavage was found to be 0.33.

Take C8U A24G: the self-cleavage was found to be 0.14.

Regarding C8U A24C, the self-cleavage was found to be 0.24.

Regarding C8U G22A, the self-cleavage was determined as 0.15.

Regarding C8U G22C, the self-cleavage is 0.15.

As for C8U G22U, the self-cleavage amounted to 0.16.

As for C8G U43A, the self-cleavage turned out to be 0.03.

On to C8G U43C, for which the self-cleavage stood at 0.02.

With C8G U43G, the self-cleavage was 0.88.

For C8U U43A, the self-cleavage amounted to 0.08.

C8U U43C: the self-cleavage came out at 0.16.

For C8U U43G, the self-cleavage stood at 0.12.

As for C8G C18A, the self-cleavage is 0.04.

C8G C18G: the self-cleavage amounted to 0.08.

With C8G C18U, the self-cleavage is 0.1.

Consider U9A C42U, for which the self-cleavage came to 0.15.

Turning to U9A C42G, the self-cleavage amounted to 0.13.

Regarding U9A C42A, the self-cleavage is 0.06.

Turning to C8G A16U, the self-cleavage was determined as 0.06.

As to C8G A16G, the self-cleavage came out at 0.11.

In the case of U9A U32C, the self-cleavage came out at 0.13.

In the case of U9A U32G, the self-cleavage is 0.19.

For the variant U9A U32A, the self-cleavage is 0.11.

C8G G33C: the self-cleavage is 0.04.

Turning to C8G G33U, the self-cleavage was 0.03.

As for C8G G33A, the self-cleavage worked out at 0.12.

C8U G27C: the self-cleavage is 0.11.

For C8U G27U, the self-cleavage was 0.14.

Turning to C8U G27A, the self-cleavage was found to be 0.14.

With U9A A25G, the self-cleavage worked out at 0.17.

Consider U9A A25U, for which the self-cleavage was determined as 0.15.

Regarding U9A A25C, the self-cleavage came out at 0.07.

As to U9A A39C, the self-cleavage turned out to be 0.17.

Regarding U9A A39G, the self-cleavage came out at 0.21.

For the variant U9A A39U, the self-cleavage was 0.1.

Take U9A A11U: the self-cleavage is 0.03.

Turning to U9A A11C, the self-cleavage came to 0.02.

On to U9A A11G, for which the self-cleavage is 0.03.

Consider C8U A41U, for which the self-cleavage was found to be 0.47.

With C8U A41C, the self-cleavage was found to be 0.16.

With C8U A41G, the self-cleavage stood at 0.2.

Consider U9A G17A, for which the self-cleavage stood at 0.07.

With U9A G17C, the self-cleavage stood at 0.06.

Regarding U9A G17U, the self-cleavage was determined as 0.13.

C8U G19A: the self-cleavage is 0.35.

In the case of C8U G19C, the self-cleavage was 0.17.

On to C8U G19U, for which the self-cleavage worked out at 0.24.

For C8G U9G, the self-cleavage is 0.12.

Consider C8G U9C, for which the self-cleavage is 0.02.

With C8G U9A, the self-cleavage is 0.21.

Regarding C8U G17A, the self-cleavage turned out to be 0.15.

As for C8U G17U, the self-cleavage came out at 0.14.

Turning to C8U G17C, the self-cleavage worked out at 0.16.

In the case of U9A C15A, the self-cleavage stood at 0.13.

In the case of U9A C15G, the self-cleavage is 0.25.

In the case of U9A C15U, the self-cleavage is 0.17.

For the variant C8G G40U, the self-cleavage stood at 0.09.

In the case of C8G G40A, the self-cleavage amounted to 0.13.

In the case of C8G G40C, the self-cleavage is 0.09.

In the case of C8U A16C, the self-cleavage was 0.13.

As for C8U A16U, the self-cleavage came to 0.13.

Take C8U A16G: the self-cleavage stood at 0.16.

C8G A39U: the self-cleavage is 0.04.

C8G A39G: the self-cleavage came out at 0.06.

On to C8G A39C, for which the self-cleavage amounted to 0.17.

With U9A C13A, the self-cleavage stood at 0.2.

Regarding U9A C13U, the self-cleavage turned out to be 0.29.

In the case of U9A C13G, the self-cleavage was found to be 0.23.

Take U9A C18A: the self-cleavage came to 0.1.

For the variant U9A C18G, the self-cleavage stood at 0.09.

For U9A C18U, the self-cleavage was 0.11.

On to U9A C10U, for which the self-cleavage worked out at 0.08.

U9A C10A: the self-cleavage was determined as 0.04.

In the case of U9A C10G, the self-cleavage worked out at 0.04.

Turning to C8U G44U, the self-cleavage is 0.35.

On to C8U G44A, for which the self-cleavage was 0.39.

C8U G44C: the self-cleavage was 0.08.

On to U9A U38A, for which the self-cleavage is 0.08.

For U9A U38G, the self-cleavage amounted to 0.22.

Regarding U9A U38C, the self-cleavage is 0.12.

As for C8U G21U, the self-cleavage stood at 0.25.

For the variant C8U G21C, the self-cleavage was found to be 0.25.

As to C8U G21A, the self-cleavage was 0.39.

Regarding C8U C15G, the self-cleavage was 0.09.

On to C8U C15U, for which the self-cleavage was determined as 0.25.

As to C8U C15A, the self-cleavage turned out to be 0.11.

Consider U9A G35A, for which the self-cleavage worked out at 0.15.

As to U9A G35C, the self-cleavage was 0.08.

Consider U9A G35U, for which the self-cleavage worked out at 0.09.

In the case of C8U G33C, the self-cleavage amounted to 0.07.

As for C8U G33U, the self-cleavage worked out at 0.16.

As for C8U G33A, the self-cleavage was 0.15.

Turning to C8G C37G, the self-cleavage was determined as 0.09.

As for C8G C37A, the self-cleavage worked out at 0.04.

Take C8G C37U: the self-cleavage was found to be 0.05.

Regarding C8G C10A, the self-cleavage came out at 0.03.

On to C8G C10U, for which the self-cleavage came out at 0.06.

On to C8G C10G, for which the self-cleavage came to 0.02.

For U9A G19U, the self-cleavage came to 0.08.

On to U9A G19C, for which the self-cleavage turned out to be 0.06.

With U9A G19A, the self-cleavage is 0.15.

Consider U9A U20C, for which the self-cleavage is 0.12.

As to U9A U20A, the self-cleavage was found to be 0.16.

For the variant U9A U20G, the self-cleavage amounted to 0.16.

As for C8U A12G, the self-cleavage was determined as 0.08.

On to C8U A12C, for which the self-cleavage was 0.04.

With C8U A12U, the self-cleavage was 0.29.
